Results: patent US7919262B2, “14-3-3 proteins for diagnosis of Parkinson's disease” (The UAB Research Foundation, priority 2007, dated 2011)

B1: 14-3-3η: 14-3-3 polypeptide η isoform, overexpressed from expression vector (protein, UniProt Q04917 2-246, looked up)
14-3-3 protein eta: GDREQLLQRARLAEQAERYDDMASAMKAVTELNEPLSNEDRNLLSVAYKNVVGARRSSWRVISSIEQKTMADGNEKKLEKVKAYREKIEKELETVCNDVLSLLDKFLIKNCNDFQYESKVFYLKMKGDYYRYLAEVASGEKKNSVVEASEAAYKEAFEISKEQMQPTHPIRLGLALNFSVFYYEIQNAPEQACLLAKQAFDDAIAELDTLNEDSYKDSTLIMQLLRDNLTLWTSDQQDEEAGEGN
B2: 14-3-3σ: 14-3-3 polypeptide σ isoform, overexpressed from expression vector (protein, UniProt P31947 1-248, looked up)
14-3-3 protein sigma: MERASLIQKAKLAEQAERYEDMAAFMKGAVEKGEELSCEERNLLSVAYKNVVGGQRAAWRVLSSIEQKSNEEGSEEKGPEVREYREKVETELQGVCDTVLGLLDSHLIKEAGDAESRVFYLKMKGDYYRYLAEVATGDDKKRIIDSARSAYQEAMDISKKEMPPTNPIRLGLALNFSVFHYEIANSPEEAISLAKTTFDEAMADLHTLSEDSYKDSTLIMQLLRDNLTLWTADNAGEEGGEAPQEPQS
B3: 14-3-3β: 14-3-3 polypeptide β isoform, overexpressed from expression vector (protein, UniProt P31946 1-246, looked up)
14-3-3 protein beta/alpha: MTMDKSELVQKAKLAEQAERYDDMAAAMKAVTEQGHELSNEERNLLSVAYKNVVGARRSSWRVISSIEQKTERNEKKQQMGKEYREKIEAELQDICNDVLELLDKYLIPNATQPESKVFYLKMKGDYFRYLSEVASGDNKQTTVSNSQQAYQEAFEISKKEMQPTHPIRLGLALNFSVFYYEILNSPEKACSLAKTAFDEAIAELDTLNEESYKDSTLIMQLLRDNLTLWTSENQGDEGDAGEGEN

How the values were obtained:
[1] = test system: SK-N-BE(2)-M17 (M17) cells; test: Rotenone toxicity in stably transfected cell lines, LDH release; assay type: cell-based; settings: stable overexpression, 48 hours; for protection against rotenone toxicity (LDH release): rotenone at varying concentrations
Description: Cell lines stably-transfected with either 14-3-3θ or empty vector were treated with varying concentrations of rotenone (0-25 μM) for 24 hours (FIG. 6A), 30 hours (FIG. 6B), or 48 hours (FIG. 6C). Cell death was assayed by LDH release into the culture media. LDH release into media was normalized to total LDH release for each well. […] Rater was blind to experimental condition. n=8 for each experimental condition. *p<0.05, ***p<0.001 (Bonferroni's multiple comparison test).
(§1) M17 cell lines stably-transfected with either a 14-3-3 isoform or empty vector were treated with varying concentrations of rotenone (0-25 μM) for 48 hours. Cell death was assayed by LDH release into the culture media. LDH release into media was normalized to total LDH release for each well. […] Results reflect two to three independent experiments with at least two replicates per experiment. *p<0.05, **p<0.01, ***p<0.001 (Bonferroni's multiple comparison test).
Additional studies were performed to evaluate the effect of 14-3-3 polypeptide isoforms in mammalian cells. In these studies, cDNA clones for the 14-3-3 polypeptide β, γ, ε, η, θ, and σ isoforms were subcloned into the mammalian expression vector pcDNA 3.1/V5/His (Invitrogen). The polypeptide expressed from this vector contains the particular 14-3-3 isoform with a V5 and a His6 tag at the C-terminal end. […] SK-N-BE(2)-M17 (M17) cells, a dopaminergic-producing human neuroblastoma cell line, were transfected with each isoform or empty vector using Superfect, and stably-transfected cells were selected for in the presence of G418.
The M17 14-3-3θ clones were examined for their resistance to rotenone (0-25 μM). M17 cell lines stably transfected with either 14-3-3θ or empty vector were treated with rotenone for 24 (FIG. 6A), 30 (FIG. 6B) or 48 hours (FIG. 6C). Cell death was assayed by […] (LDH) release into the culture media using the LDH assay kit from Roche. LDH release into media was normalized to total LDH release for each well. Results reflect three independent experiments with at least two replicates per experiment.
Stable M17 cell lines overexpressing these other isoforms were treated with rotenone at varying concentrations, and then cell death was assayed at 48 hours by LDH release. […]

H4 cells = test: α-syn toxicity assay, adenylate kinase released into the media; assay type: cell-based; settings: co-transfected with wildtype α-syn; 24 hours after transfection; vs empty vector
Description: Briefly, H4 cells were transfected with wildtype α-syn and each of the 14-3-3 polypeptide isoforms or empty vector controls as discussed above. Twenty-four hours after transfection, cell death was assayed by adenylate kinase activity in the media (n=4, *p<0.05, **p<0.01, ***p<0.001).
Primers against each of the human 14-3-3 isoforms were designed using Primer3. Primers against 14-3-3β (NM_018753) were 5′ […] 3′ (forward; SEQ ID NO. 9) and 5′ […] 3′ (reverse; SEQ ID NO. 10). Primers against 14-3-3ε (NM_009536) were 5′ […] 3′ (forward; SEQ ID NO. 11) and 5′ […] 3′ (reverse; SEQ ID NO. 12). Primers against 14-3-3γ (NM_018871) were 5′ […] 3′ (forward; SEQ ID NO. 13) and 5′ […] 3′ (reverse; SEQ ID NO. 14). Primers against 14-3-3η (NM_011738) were 5′ […] 3′ (forward; SEQ ID NO. 15) and 5′ […] 3′ (reverse; SEQ ID NO. 16). Primers against 14-3-3θ (NM_011739) were 5′ […] 3′ (forward; SEQ ID NO. 17) and 5′ […] 3′ (reverse; SEQ ID NO. 18). Primers against 14-3-3σ (NM_018754) were 5′ […] 3′ (forward; SEQ ID NO. 19) and 5′ […] 3′ (reverse; SEQ ID NO. 20). Primers against 14-3-3ζ(NM_011740) were 5′ […] 3′ (forward; SEQ ID NO. 21) and 5′ […] 3′ (reverse; SEQ ID NO. 22). Primers against GAPDH were 5′ tggtgaagcaggeatctga 3′ (forward; SEQ ID NO. 23) and 5′ […] […] All cells stained for α-syn were scored as positive or negative for α-syn aggregates, with the rater blind to experimental condition. • α-syn toxicity assay H4 cells were transfected with α-syn and either empty vector control or a 14-3-3 isoform using Superfect transfection reagent (Qiagen). 24 hours after transfection, toxicity was measured by the amount of adenylate kinase released into the media using the ToxiLight™ kit (Cambrex). • Creation of stable cell lines Each 14-3-3 isoform was subcloned into the mammalian expression vector mcDNA3.1/V5-His (Invitrogen). […] Protein concentrations of supernatants were determined by the bicinchoninic acid assay (BCA; Pierce, Rockford, Ill.). […]

M17 cells = test: MPP+ toxicity in stably transfected cell lines, LDH release; assay type: cell-based, human; settings: stable overexpression; MPP+ 0-10 mM; 24 hours
Description: as §1, with “Cell” for “M17 cell”, “MPP+” for “rotenone (0-25 μM)”, “24” for “48”, “well. Lines overexpressing 14-3-3θ (FIG. 9A), 14-3-3ε (FIG. 9B), or 14-3-3γ (FIG. 9C) were more resistant to MPP+ in a dose-dependent manner compared to control stable cells.” for “well.”, “experiment.” for “experiment. *p<0.05,”
The 14-3-3 expressing M17 clones were also tested for resistance to the neurotoxin 1-methyl-4-phenylpyridinium ion (MPP+), which is a metalbolite of 1-methyl-4-phenyl-1,2,3,6-tetrahydropyridine (MPTP). M17 cells expressing the 14-3-3 isoforms were prepared as described. M17 cells were treated with MPP+ (0-10 mM) for 24 hours (FIGS. 9A-G). Cell death was assayed by LDH release into the culture media as described above.
Primers against each of the human 14-3-3 isoforms were designed using Primer3. Primers against 14-3-3β (NM_018753) were 5′ […] 3′ (forward; SEQ ID NO. 9) and 5′ […] 3′ (reverse; SEQ ID NO. 10). Primers against 14-3-3ε (NM_009536) were 5′ […] 3′ (forward; SEQ ID NO. 11) and 5′ […] 3′ (reverse; SEQ ID NO. 12). Primers against 14-3-3γ (NM_018871) were 5′ […] 3′ (forward; SEQ ID NO. 13) and 5′ […] 3′ (reverse; SEQ ID NO. 14). Primers against 14-3-3η (NM_011738) were 5′ […] 3′ (forward; SEQ ID NO. 15) and 5′ […] 3′ (reverse; SEQ ID NO. 16). Primers against 14-3-3θ (NM_011739) were 5′ […] 3′ (forward; SEQ ID NO. 17) and 5′ […] 3′ (reverse; SEQ ID NO. 18). Primers against 14-3-3σ (NM_018754) were 5′ […] 3′ (forward; SEQ ID NO. 19) and 5′ […] 3′ (reverse; SEQ ID NO. 20). Primers against 14-3-3ζ(NM_011740) were 5′ […] 3′ (forward; SEQ ID NO. 21) and 5′ […] 3′ (reverse; SEQ ID NO. 22). Primers against GAPDH were 5′ tggtgaagcaggeatctga 3′ (forward; SEQ ID NO. 23) and 5′ […] 3′ (reverse; SEQ ID NO. 24) and were used to normalize PCR results. • α-syn aggregation assay H4 cells were transfected with synphilin, α-syn/green fluorescent protein (synT), and either empty vector control or a 14-3-3 isoform using Superfect transfection reagent (Qiagen). 24 hours after transfection, cells were fixed with 4% paraformaldehyde and immunostained with a monoclonal antibody against α-syn (BD Transduction) and a secondary Alexa 488-conjugated goat anti-mouse antibody (Molecular Probes). All cells stained for α-syn were scored as positive or negative for α-syn aggregates, with the rater blind to experimental condition. • α-syn toxicity assay H4 cells were transfected with α-syn and either empty vector control or a 14-3-3 isoform using Superfect transfection reagent (Qiagen). 24 hours after transfection, toxicity was measured by the amount of adenylate kinase released into the media using the ToxiLight™ kit (Cambrex). • Creation of stable cell lines Each 14-3-3 isoform was subcloned into the mammalian expression vector mcDNA3.1/V5-His (Invitrogen). BE(2)-M17 cells were transfected with each isoform or empty vector using Superfect, and stably-transfected cells were selected for in the presence of G418. […] Protein concentrations of supernatants were determined by the bicinchoninic acid assay (BCA; Pierce, Rockford, Ill.). […]

Molecule | protection against rotenone toxicity (LDH release) [1] | effect on α-syn dependent cell death (adenylate kinase activity in the media) (H4 cells) | protection against MPP+ toxicity (LDH release) (M17 cells) | rotenone-induced cell death, % of that in control cells ([1]; 1 μM rotenone, LDH release) [%]
B1 | did not provide any protection |  |  | 
B2 | did not provide any protection | protective effects |  | 
B3 | some protection |  | did not show any significant protection | 75
